Measured values as given in the supplement of paper PMC9233669.
Variants at the floor of the assay were thinned out.

Columns and labels:
biotinyl-Phe-oxazolone = assay: self-aminoacylation, catalytic enhancement (BFO) (fold over background); higher = more active; k-Seq, kA / k0A0; sequences stand for … in GGGAAUGGAUCCACAUCUACGAAUUC…UUCACUGCAGACUUGACGAAGCUG
Outline: (§1)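 Mutagenized RNA pools with a 21-nt variable region (0.43 μM) were reacted with each biotinyl-aminoacyl-oxazolone at 2–1250 μM for 90 minutes at room temperature, in 50 μL HEPES/NaCl/KCl/MgCl2/CaCl2 buffer containing 5% acetonitrile at pH 6.9–7.0. RNA captured on streptavidin was quantified by triplicate qPCR and by Illumina sequencing. The fraction reacted for each sequence was fit to a pseudo-first-order model with bootstrapping, and catalytic enhancement is the median kA divided by the uncatalyzed rate, taken as the low-activity peak of a bimodal Gaussian fit.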

biotinyl-Trp-oxazolone = assay: self-aminoacylation, catalytic enhancement (BWO) (fold over background); higher = more active; k-Seq, kA / k0A0; sequences stand for … in GGGAAUGGAUCCACAUCUACGAAUUC…UUCACUGCAGACUUGACGAAGCUG
Outline: as §1

biotinyl-Ile-oxazolone = assay: self-aminoacylation, catalytic enhancement (BIO) (fold over background); higher = more active; k-Seq, kA / k0A0; sequences stand for … in GGGAAUGGAUCCACAUCUACGAAUUC…UUCACUGCAGACUUGACGAAGCUG
Outline: as §1

biotinyl-Met-oxazolone = assay: self-aminoacylation, catalytic enhancement (BMO) (fold over background); higher = more active; k-Seq, kA / k0A0; sequences stand for … in GGGAAUGGAUCCACAUCUACGAAUUC…UUCACUGCAGACUUGACGAAGCUG
Outline: as §1

biotinyl-Leu-oxazolone = assay: self-aminoacylation, catalytic enhancement (BLO) (fold over background); higher = more active; k-Seq, kA / k0A0; sequences stand for … in GGGAAUGGAUCCACAUCUACGAAUUC…UUCACUGCAGACUUGACGAAGCUG
Outline: as §1

biotinyl-Val-oxazolone = assay: self-aminoacylation, catalytic enhancement (BVO) (fold over background); higher = more active; k-Seq, kA / k0A0; sequences stand for … in GGGAAUGGAUCCACAUCUACGAAUUC…UUCACUGCAGACUUGACGAAGCUG
Outline: as §1

| Sequence | self-aminoacylation (biotinyl-Phe-oxazolone) | self-aminoacylation (biotinyl-Trp-oxazolone) | self-aminoacylation (biotinyl-Ile-oxazolone) | self-aminoacylation (biotinyl-Met-oxazolone) | self-aminoacylation (biotinyl-Leu-oxazolone) | self-aminoacylation (biotinyl-Val-oxazolone) |
| --- | --- | --- | --- | --- | --- | --- |
| CCACACUGCAAGCGAUCGGUC [Fam1B.1 aminoacylation ribozyme variant] | 1.13 | 1.43 | 1.27 | 1.19 | 1.15 | 1.57 |
| CCACACUUAAACCAAUCGGUC [Fam1B.1 aminoacylation ribozyme variant] | 1.19 | 0.722 | 0.938 | 0.615 | 0.572 | 0.756 |
| CCACACUUAAAGCAACCGGUC [Fam1B.1 aminoacylation ribozyme variant] | 0.756 | 0.943 | 1.08 | 1.2 | 0.876 | 1.16 |
| CCACACUUAAAGCAAUCGGUG [Fam1B.1 aminoacylation ribozyme variant] | 26 | 4.42 | 2.75 | 3.87 | 4.31 | 2.42 |
| CCACACUUAAAGCACUCGGUC [Fam1B.1 aminoacylation ribozyme variant] | 0.788 | 0.732 | 1.16 | 0.856 | 0.924 | 1.11 |
| CCACACUUAAAGGAAUCGGUC [Fam1B.1 aminoacylation ribozyme variant] | 0.88 | 0.763 | 1.12 | 0.953 | 0.906 | 1.01 |
| CCACACUUCAAACAAUCAGUC [Fam1B.1 aminoacylation ribozyme variant] | 42.2 | 12.4 | 0.947 | 0.771 | 1.16 | 1.06 |
| CCACACUUCAAACAAUCCGUC [Fam1B.1 aminoacylation ribozyme variant] | 1.35 | 1.2 | 0.83 | 0.559 | 0.682 | 0.993 |
| CCACACUUCAAACAAUCGUUC [Fam1B.1 aminoacylation ribozyme variant] | 1.55 | 0.778 | 0.759 | 0.697 | 0.623 | 0.822 |
| CCACACUUCAAAGAAUCGGUC [Fam1B.1 aminoacylation ribozyme variant] | 12.1 | 9.57 | 0.988 | 0.888 | 1.17 | 0.955 |
| CCACACUUCAACCAAGCGGUC [Fam1B.1 aminoacylation ribozyme variant] | 0.838 | 0.613 | 0.95 | 0.914 | 0.761 | 1.08 |
| CCACACUUCAACCAAUCGGCC [Fam1B.1 aminoacylation ribozyme variant] | 4.99 | 5.45 | 2.12 | 1.55 | 1.72 | 2 |
| CCACACUUCAACCAAUCGUUC [Fam1B.1 aminoacylation ribozyme variant] | 1.28 | 0.778 | 0.674 | 0.634 | 0.562 | 0.636 |
| CCACACUUCAACCUAUCGGUC [Fam1B.1 aminoacylation ribozyme variant] | 1.18 | 0.993 | 1.02 | 0.87 | 0.995 | 1.34 |
| CCACACUUCAAGAAACCGGUC [Fam1B.1 aminoacylation ribozyme variant] | 0.875 | 0.931 | 0.998 | 0.798 | 1.17 | 0.824 |
| CCACACUUCAAGAAAGCGGUC [Fam1B.1 aminoacylation ribozyme variant] | 0.498 | 0.407 | 0.839 | 0.66 | 0.784 | 0.716 |
| CCACACUUCAAGAAAUCGGGC [Fam1B.1 aminoacylation ribozyme variant] | 1.14 | 2.16 | 2.14 | 1.82 | 1.64 | 1.69 |
| CCACACUUCAAGCAAACGGUC [Fam1B.1 aminoacylation ribozyme variant] | 1.02 | 0.599 | 0.624 | 0.511 | 0.535 | 0.755 |
| CCACACUUCAAGCAAACUGUC [Fam1B.1 aminoacylation ribozyme variant] | 0.713 | 0.5 | 0.424 | 0.371 | 0.44 | 0.504 |
| CCACACUUCAAGCAAGCAGUC [Fam1B.1 aminoacylation ribozyme variant] | 0.916 | 0.475 | 0.721 | 0.645 | 0.861 | 0.857 |
| CCACACUUCAAGCAAGCGGUA [Fam1B.1 aminoacylation ribozyme variant] | 0.741 | 0.921 | 1.39 | 1.02 | 1.13 | 1.2 |
| CCACACUUCAAGCAAGCGUUC [Fam1B.1 aminoacylation ribozyme variant] | 0.905 | 0.492 | 0.689 | 0.454 | 0.516 | 0.728 |
| CCACACUUCAAGCAAUAGGAC [Fam1B.1 aminoacylation ribozyme variant] | 0.856 | 0.626 | 0.621 | 0.456 | 0.479 | 0.537 |
| CCACACUUCAAGCAAUAGGUG [Fam1B.1 aminoacylation ribozyme variant] | 4.08 | 2.55 | 1.85 | 2.17 | 2.81 | 1.65 |
| CCACACUUCAAGCAAUCCAUC [Fam1B.1 aminoacylation ribozyme variant] | 0.752 | 0.529 | 0.553 | 0.433 | 0.446 | 0.774 |
| CCACACUUCAAGCAAUCCGCC [Fam1B.1 aminoacylation ribozyme variant] | 0.939 | 0.899 | 0.873 | 1.16 | 1.02 | 1.64 |

| Sequence | self-aminoacylation (biotinyl-Phe-oxazolone) | self-aminoacylation (biotinyl-Trp-oxazolone) | self-aminoacylation (biotinyl-Ile-oxazolone) | self-aminoacylation (biotinyl-Met-oxazolone) | self-aminoacylation (biotinyl-Leu-oxazolone) | self-aminoacylation (biotinyl-Val-oxazolone) |
| --- | --- | --- | --- | --- | --- | --- |
| CCACACUUCAAGCAAUCGCCC [Fam1B.1 aminoacylation ribozyme variant] | 0.498 | 1.58 | 0.996 | 1.33 | 2 | 2.32 |
| CCACACUUCAAGCAAUCGGAA [Fam1B.1 aminoacylation ribozyme variant] | 1.81 | 1.18 | 1.45 | 1.42 | 2.04 | 1.51 |
| CCACACUUCAAGCAAUCGGUC [Fam1B.1 aminoacylation ribozyme variant] | 59.3 | 23.9 | 1.01 | 0.964 | 1.44 | 1.25 |
| CCACACUUCAAGCAAUCGGUU [Fam1B.1 aminoacylation ribozyme variant] | 9.59 | 7.61 | 1.35 | 1.36 | 1.38 | 1.59 |
| CCACACUUCAAGCAAUCGUCC [Fam1B.1 aminoacylation ribozyme variant] | 1.57 | 1.06 | 0.54 | 0.412 | 0.518 | 0.652 |
| CCACACUUCAAGCAAUCUGAC [Fam1B.1 aminoacylation ribozyme variant] | 0.63 | 0.429 | 0.493 | 0.41 | 0.325 | 0.549 |
| CCACACUUCAAGCAAUUGGCC [Fam1B.1 aminoacylation ribozyme variant] | 2.34 | 3.51 | 2.77 | 2.58 | 3.18 | 4.13 |
| CCACACUUCAAGCACUCGGCC [Fam1B.1 aminoacylation ribozyme variant] | 15.9 | 5.51 | 3.06 | 2.89 | 3.19 | 4.04 |
| CCACACUUCAAGCACUCGGUG [Fam1B.1 aminoacylation ribozyme variant] | 22.4 | 3.63 | 2.92 | 3.52 | 4.22 | 3.16 |
| CCACACUUCAAGCAGCCGGUC [Fam1B.1 aminoacylation ribozyme variant] | 0.916 | 1.68 | 1.97 | 1.32 | 1.82 | 1.56 |
| CCACACUUCAAGCAGGCGGUC [Fam1B.1 aminoacylation ribozyme variant] | 0.771 | 1.77 | 1.86 | 1.24 | 1.07 | 1.54 |
| CCACACUUCAAGCAUUCAGUC [Fam1B.1 aminoacylation ribozyme variant] | 1.03 | 0.562 | 0.878 | 0.505 | 0.576 | 0.758 |
| CCACACUUCAAGCCAUCGGCC [Fam1B.1 aminoacylation ribozyme variant] | 5.27 | 4.97 | 2.98 | 3.33 | 2.85 | 5 |
| CCACACUUCAAGCCAUCGUUC [Fam1B.1 aminoacylation ribozyme variant] | 0.848 | 0.897 | 1.08 | 1.03 | 1.24 | 1.35 |
| CCACACUUCAAGCGACCGGUC [Fam1B.1 aminoacylation ribozyme variant] | 0.483 | 1.63 | 1.22 | 1.11 | 1.33 | 1.52 |
| CCACACUUCAAGCGAGCGGUC [Fam1B.1 aminoacylation ribozyme variant] | 0.929 | 0.744 | 0.983 | 0.603 | 0.93 | 1.11 |
| CCACACUUCAAGCGAUCGCUC [Fam1B.1 aminoacylation ribozyme variant] | 4.68 | 2.83 | 2.62 | 1.85 | 2.28 | 2.03 |
| CCACACUUCAAGCGAUCGGGC [Fam1B.1 aminoacylation ribozyme variant] | 1.07 | 3.13 | 2.4 | 2.65 | 1.64 | 2.89 |
| CCACACUUCAAGCGAUCGGUA [Fam1B.1 aminoacylation ribozyme variant] | 1.73 | 0.843 | 1.22 | 1.48 | 1.58 | 2.2 |
| CCACACUUCAAGCGAUCGGUU [Fam1B.1 aminoacylation ribozyme variant] | 3.6 | 1.77 | 1.77 | 1.48 | 1.53 | 2.08 |
| CCACACUUCAAGCUAUCGGCC [Fam1B.1 aminoacylation ribozyme variant] | 0.862 | 1.81 | 1.62 | 1.7 | 1.82 | 1.51 |
| CCACACUUCAAGCUAUCGGGC [Fam1B.1 aminoacylation ribozyme variant] | 1.57 | 2.2 | 1.67 | 1.46 | 1.45 | 1.76 |
| CCACACUUCAAGCUAUGGGUC [Fam1B.1 aminoacylation ribozyme variant] | 0.774 | 0.724 | 0.966 | 0.875 | 0.763 | 0.911 |
| CCACACUUCAAGGAAGCGGUC [Fam1B.1 aminoacylation ribozyme variant] | 0.364 | 0.619 | 0.986 | 1.06 | 1.13 | 1.28 |
| CCACACUUCAAGGAAUCGGGC [Fam1B.1 aminoacylation ribozyme variant] | 1.44 | 3.41 | 2.98 | 3.01 | 2.86 | 2.85 |
